Patent US20230121197A1, “ANTIBODIES SPECIFICALLY BINDING THE CARBOXYMETHYLATED CATALYTIC SUBUNIT OF PROTEIN PHOSPHATASE 2A” (Medizinische Universität Wien, priority 2020, published 2023)
Blank lines part the entries; values can stand above or below the molecule they belong to.

Tests used:
[1] = target: PP2Ac C-terminal peptide L309, ac-…-OH (unmodified) (human); test: ELISA, peptide coated at 2 µg/ml, antibody 1 µg/ml
[2] = target: PP2Ac C-terminal peptide pY307-meL309, ac-HVTRRTPDpYFL-CH3 (human); test: ELISA, peptide coated at 2 µg/ml, antibody 1 µg/ml, values normalized to L309, N=6
[3] = target: PP2Ac C-terminal peptide meL309, ac-…-CH3 (α-carboxymethylated) (human); test: as above
[4] = target: PP2Ac C-terminal peptide pT304-L309, ac-HVTRRpTPDYFL-OH (human); test: as above
[5] = target: PP2Ac C-terminal peptide pT304-meL309, ac-HVTRRpTPDYFL-CH3 (human); test: as above
[6] = system: α-carboxymethylation of PP2Ac; test: H358 xenograft tumors, single dose DT-061 time-course: methyl-PP2Ac by IHC and western blot with 7C10-C5; format: in vivo, Balb/c nu/nu mice
Protocol: Next, the immunohistochemical analysis of xenograft tumors was performed. In brief, five micron sections from formalin-fixed paraffin-embedded (FFPE) specimens were deparaffinized in Histo-Clear and ethanol, exposed to 0.3% hydrogen peroxide to block endogenous peroxidase activity, and incubated for antigen retrieval with a citrate-based antigen unmasking solution (H-3300, Vector Laboratories) in a pressure cooker. Tumor sections were blocked with Mouse Ig Blocking Reagent (BMK-2202, Vector Laboratories), and incubated with anti-carboxymethyl PP2Ac specific antibody (7C10-C5) or an antibody recognizing total PP2Ac (ab106262) at 4° C. for two nights. Washes were performed in PBS. Slides were subsequently developed using secondary anti-mouse immunoglobulins/HRP (K1497, Agilent), DAB peroxidase substrate as the chromagen, and hematoxylin for counterstaining nuclei. Slides were sealed, and randomized for subsequent blinded review. Two independent researchers scored the level of carboxymethylated PP2Ac staining (with 7C10-C5) in one section per tumor (min. 6 tumors per treatment/control group). […] Scores from 0-2 are considered low staining, 2-4 as moderate, and 4-6 as high intensity staining. Based on these scores the data was plotted as the percentage of slides from each time point that fell into each group (FIG. 14I).

[7] = system: c-MYC; test: H358 xenograft tumors, single dose DT-061 time-course: c-MYC IHC; format: in vivo, Balb/c nu/nu mice; details: single dose DT-061
[8] = mouse, in vivo, 5 mg/kg
[9] = target: PP2Ac C-terminal peptide pY307-meL309, ac-HVTRRTPDpYFL-CH3 (human); test: ELISA, 4-fold dilution series of coated peptide, normalized, N=3
[10] = target: PP2Ac C-terminal peptide meL309, ac-…-CH3 (α-carboxymethylated) (human); test: ELISA, peptide coated at 2 µg/ml, antibody 1 µg/ml, normalized, N=4
[11] = target: PP2Ac C-terminal peptide pT304-meL309, ac-HVTRRpTPDYFL-CH3 (human); test: as above
[12] = target: PP2Ac C-terminal peptide pY307-meL309, ac-HVTRRTPDpYFL-CH3 (human); test: ELISA, peptide coated at 2 µg/ml, antibody 1 µg/ml, normalized, N=3
[13] = target: PP2Ac C-terminal peptide meL309, ac-…-CH3 (α-carboxymethylated) (human); test: as above
[14] = target: T1, C-terminal PP2Ac peptides L309, Y307F, pY307, meL309 (Homo sapiens, UniProt P67775); test: ELISA with CGEPHVTRRTPDYFL peptides free or linked to BSA (scFv and recombinant 7C10-C5); format: binding; details: for recognition of meL309 versus non-carboxymethylated peptides: peptides free or linked to BSA
T1 construct: coated with C-terminal PP2Ac peptides either free or linked to BSA; BSA (carrier)
Protocol: Nunc Medisorp 96-well ELISA flat-bottom plates were coated with C-terminal PP2Ac peptides either free or linked to BSA. Specifically, the peptides were: unmodified L309 (CGEPHVTRRTPDYFL) (SEQ ID NO:49), Y307F (CGEPHVTRRTPDFFL) (SEQ ID NO:50), pY307 (CGEPHVTRRTPDpYFL) (SEQ ID NO:51) or carboxymethylated meL309 (CGEPHVTRRTPDYFL-CH3) (SEQ ID NO:49), on the ELISA plate at 8 μg/ml in TBS (free) or 1 μg/ml in TBS (linked to BSA) at 4° C. overnight. After washing twice with TBS, the wells were incubated with 2% BSA in TBS for 1 h at RT. After washing once with TBS, the wells were incubated with single clone hybridoma cell culture supernatant, clone 7C10-C5 1:50 (7C10 X63), recombinant single chain variable fragment of antibody 7C10-C5, undiluted (7C10 scFvs), or recombinant bivalent single chain variable fragment of antibody 7C10-C5, undiluted (7C10 bi-scFvs). After washing 3× with TBS, wells incubated with recombinant antibodies were incubated with monoclonal antibody 16B12, 1:10000 (recognizing the hemagglutinin tag on the recombinant antibody) in 1% BSA TBS 1 h at room temperature. After washing 3× in TBS, incubation with anti-mouse-HRP coupled secondary antibody for 1 h at RT was performed. Bound antibodies were detected by colorimetric reaction with 3,3′,5,5′-Tetramethylbenzidine as substrate, and absorbance was measured at 450 nm. Values were normalized to meL309 which was arbitrarily set to 1. Average and standard deviation of N=3 experiments are shown.
Nunc Medisorp 96-well ELISA flat-bottom plates were coated with peptides either free or linked to BSA, L309 (CGEPHVTRRTPDYFL) (SEQ ID NO:49) or meL309 (CGEPHVTRRTPDYFL-CH3) (SEQ ID NO:49), on the ELISA plate at 0.5 μg/ml in TBS (free) or […] in TBS (linked to BSA) at 4° C. over night. After washing twice with TBS, the wells were incubated with 2% BSA in TBS for 1 h at RT. After washing once with TBS, the wells were incubated with single clone hybridoma cell culture supernatant, clone 7C10-C5 1:50 (7C10 X63), or recombinant antibody 7C10-C5 undiluted (rec 7C10). After washing 3× with TBS, incubation with anti-mouse-HRP coupled secondary antibody for 1 h at RT was performed. Bound antibodies were detected by colorimetric reaction with 3,3′,5,5′-Tetramethylbenzidine as substrate, and absorbance was measured at 450 nm. Values were normalized to meL309 incubated with 7C10 X63, which was arbitrarily set to 1. Average and standard deviation of N=3 experiments are shown (FIG. 30).

[15] = target: PP2Ac peptides L309, Y307F, pY307, meL309 crosslinked to BSA (Homo sapiens, UniProt P67775); test: Western blot of BSA crosslinked PP2Ac peptides (scFv 7C10-C5); format: binding; details: 100 ng BSA crosslinked peptides
Protocol: 100 ng of BSA crosslinked with peptides (L309: CGEPHVTRRTPDYFL (SEQ ID NO:49), Y307F: CGEPHVTRRTPDFFL (SEQ ID NO.50), pY307: CGEPHVTRRTPDpYFL (SEQ ID NO:51) or meL309: CGEPHVTRRTPDYFL-CH3) (SEQ ID NO:49) was separated by 10% SDS-PAGE and transferred to nitrocellulose membrane (0.2 μm, GE Healthcare). Of note, the Y307F peptide cannot be phosphorylated at position 307 due to the presence of a phenylalanine. The membranes were blocked in 3% non-fatty dry milk (NFDM) in TBS-Tween for 1 h at RT and incubated with single clone hybridoma cell culture supernatant, clone 7C10-C5 diluted 1:100 in 0.5% NFDM in TBS-T (7C10 X63), recombinant single chain variable fragment of antibody 7C10-C5, undiluted (7C10 scFvs), recombinant bivalent single chain variable fragment 7C10-C5, undiluted (7C10 bi-scFvs) or single clone hybridoma cell culture supernatant, clone 1D7 (binding to non-carboxymethylated PP2Ac) 1:100 in 0.5% NFDM in TBS-T o/n at 4° C. After washing 3×5 min in TBS-T, blots incubated with recombinant antibodies were incubated with mouse anti-HA monoclonal antibody 16B12 (recognizing the hemagglutinin (HA) tag on the recombinant antibody), 1:10000 in 0.5% NFDM in TBS-T 2 h at room temperature. After washing 3×5 min in TBS-T, incubation with anti-mouse-HRP coupled secondary antibody for 1 h at RT and 3×10 min washes in TBS-T was performed. […] Signals were detected by exposure of X-ray films. […]

fold higher ELISA signal intensity than with the α-carboxymethylated counterpart (meL309) [1]: 8 fold | fold-change of ELISA signal, pY307-L309 over pY307-meL309 [2]: 8.27 fold | fold-change of ELISA signal, L309 over meL309 [3]: 8.27 fold | fold-change of ELISA signal, L309 over pT304-L309 [4]: 1.75 fold | fold-change of ELISA signal, pT304-L309 over pT304-meL309 [5]: 7.39 fold
Molecule: mouse monoclonal antibody 4B7 (SCBT, sc-13601, lot 0716)

half-life obtained from serum [8]: 6.3 h
Molecule: O=S(=O)(N[C@@H]1CCC[C@H](N2c3ccccc3Oc3ccccc32)[C@H]1O)c1ccc(OC(F)(F)F)cc1 [DT-061]
return of α-carboxymethylated PP2Ac to basal levels post treatment ([6]; single dose DT-061): ≤ 12 h | α-carboxymethylated PP2Ac in xenograft tumors after treatment ([6]; single dose DT-061 (5 mg/kg), IHC with 7C10-C5): increase in α-carboxymethylated PP2Ac at early time points (one, two, and three hours) | return of c-MYC to basal levels [7]: ≤ 6 h | c-MYC in xenograft tumors after treatment ([7]; IHC): significant decrease of c-MYC at early time points (one, two, and three hours)

EC50 (read off the curve) [9]: 0.3 µg/mL | fold higher ELISA signal intensity than with the α-carboxymethylated counterpart (meL309) [1]: 4.7 to 8.2 fold | fold-change of ELISA signal, L309 over meL309 [10]: 4.65 fold | fold-change of ELISA signal, L309 over pT304-meL309 [11]: 50 fold | fold-change of ELISA signal, meL309 over pT304-meL309 [11]: 10.7 fold | fold-change of ELISA signal, pT304-L309 over pT304-meL309 [11]: 36.1 fold | fold-change of ELISA signal, pY307-L309 over pY307-meL309 [12]: 2.5 fold | fold-change of ELISA signal, pY307-meL309 over meL309 [12]: 3.36 fold | fold-change of ELISA signal, L309 over meL309 [13]: 8.2 fold
Molecule: rabbit monoclonal antibody E155 (Abcam #ab32104 lot GR17965-24)

B1: monovalent scFv 7C10-C5: recombinant monovalent single chain variable fragment of antibody 7C10-C5 (SEQ ID NO:42) (protein)
scFv: MDMRVPAQLLGLLLLWLSGARCDVLMTQTPLSLPVSLGDQASISCRSSQSIVHSNGNTYLEWYLQKPGQSPKLLIYKVSNRFSGVPDRFSGSGSGTDFTLKINRVEAEDLGVYYCFQGSHVPWTFGGGTKLEIKSSGGGGSGGGGGGSSRSSLDVQLQESGPGLVKPSQSLSLTCSVTGYSITSGYYWNWIRQFPGNKLEWMGYISYDGSNNYNPSLKNRISITRDTSKNQFFLKLNSVTTEDTATYYCAGRFAYWGQGTLVTVSAAKTTPPSVTSGQAGQHHHHHHGAYPYDVPDYAS
modifications: recombinant monovalent scFv antibody
recognition of meL309 versus non-carboxymethylated peptides [14]: specifically recognized the carboxymethylated meL309 peptide, but none of the non-carboxymethylated peptides | recognition of meL309 versus non-carboxymethylated peptides [15]: specifically recognized the carboxymethylated meL309 peptide, but none of the non-carboxymethylated peptides

B2: bivalent scFv 7C10-C5: recombinant bivalent single chain variable fragment of antibody 7C10-C5 (SEQ ID NO:44) (protein)
scFv: MDMRVPAQLLGLLLLWLSGARCDVLMTQTPLSLPVSLGDQASISCRSSQSIVHSNGNTYLEWYLQKPGQSPKLLIYKVSNRFSGVPDRFSGSGSGTDFTLKINRVEAEDLGVYYCFQGSHVPWTFGGGTKLEIKSSGGGGSGGGGGGSSRSSLDVQLQESGPGLVKPSQSLSLTCSVTGYSITSGYYWNWIRQFPGNKLEWMGYISYDGSNNYNPSLKNRISITRDTSKNQFFLKLNSVTTEDTATYYCAGRFAYWGQGTLVTVSAAKTTPPSVGSGSGSGSGSGSGSGSGSGSGSGSGSGSGSDVLMTQTPLSLPVSLGDQASISCRSSQSIVHSNGNTYLEWYLQKPGQSPKLLIYKVSNRFSGVPDRFSGSGSGTDFTLKINRVEAEDLGVYYCFQGSHVPWTFGGGTKLEIKSSGGGGSGGGGGGSSRSSLDVQLQESGPGLVKPSQSLSLTCSVTGYSITSGYYWNWIRQFPGNKLEWMGYISYDGSNNYNPSLKNRISITRDTSKNQFFLKLNSVTTEDTATYYCAGRFAYWGQGTLVTVSAAKTTPPSVTSGQAGQHHHHHHGAYPYDVPDYAS
modifications: recombinant bivalent scFv antibody
binding to meL309 peptide, bivalent versus monovalent scFv [14]: bound stronger to the meL309 peptide than the monovalent scFv | recognition of meL309 versus non-carboxymethylated peptides [14]: specifically recognized the carboxymethylated meL309 peptide, but none of the non-carboxymethylated peptides | recognition of meL309 versus non-carboxymethylated peptides [15]: specifically recognized the carboxymethylated meL309 peptide, but none of the non-carboxymethylated peptides
